The assay concerns the target T1, human CD80 (human, UniProt P33681 35-288).
T1 construct: whole, on cells; also called human CD80-expressing acute myelogenous leukemia cell line (Cat#CRL-2740, ATCC)
T1 sequence (looked up): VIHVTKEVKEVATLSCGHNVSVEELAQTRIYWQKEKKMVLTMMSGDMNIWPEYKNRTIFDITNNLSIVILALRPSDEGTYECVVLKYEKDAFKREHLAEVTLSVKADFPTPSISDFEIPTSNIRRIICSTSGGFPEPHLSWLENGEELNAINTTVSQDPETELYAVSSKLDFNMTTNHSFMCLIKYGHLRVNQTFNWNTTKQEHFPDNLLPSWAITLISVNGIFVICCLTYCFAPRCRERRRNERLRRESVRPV
The assay can be described thus: flow cytometry on human CD80-expressing AML cells; grade = binding percentage of the wild-type, ++++ (100%). (A flow cytometer gives signals particle by particle.)

The record followed here is patent publication US20160017018A1 (GENERAL HOSPITAL, published 2016).

Text: FIGS. 1A-C. […] PE-SA only; biotinylated protein control [porcine CD3εγ ectodomain single-chain fusion protein (pCD3εγ)] […] B) Bar graph presentation of the mean fluorescence intensity (MFI) from flow cytometry binding analysis data as described in A). Different concentrations of biotinylated pCD3εγ were used as non-specific fluorescence control. Error bars are included based on the calculated standard deviation. […] The concentration of the competitor is indicated. All figures of 1A-C are representatives of multiple individual experiments.

B1: Non-N-Glycosylated soluble human CTLA-4-6×His (receptor)
chain: KAMHVAQPAVVLASSRGIASFVCEYASPGKATEVRVTVLRQADSQVTEVCAATYMMGNELTFLDDSICTGTSSGNQVALTIQGLRAMDTGLYICKVELMYPPPYYLGIGAGTQIYVIDPEPCPDSDHHHHHH
modifications: biotinylated for the direct binding stain (sites not given); unlabeled in the blocking assay
notes: Expressed in Pichia pastoris; also called wild-type soluble human CTLA-4; human CTLA-4 wild-type
B1: the binding result was “binds”.
